Drawing on patent publication US20140322196A1, this text covers activity on viral hemagglutination (HI) for 2 molecules.

In assay [1] the target is Hemagglutinin (HA) of Influenza SW [change] 1089/09 swine pandemic H1N1 (inactivated subunits, vaccine) (Influenza A virus SW [change] swine pandemic H1N1). As to the kind of experiment: cell-based or functional assay.
Assay [2] concerns the target Hemagglutinin (HA) of Avian 29/05/06 H5N1 (inactivated vaccine) (Influenza A virus Avian 29/05/06 H5N1). As to the kind of experiment: cell-based or functional assay.

B1: bLf C-lobe (aa 285-689) (protein)
chain: SFQLFGSPPGQRDLLFKDSALGFLRIPSKVDSALYLGSRYLTTLKNLRETAEEVKARYTRVVWCAVGPEEQKKCQQWSQQSGQNVTCATASTTDDCIVLVLKGEADALNLDGGYIYTAGKCGLVPVLAENRKSSKHSSLDCVLRPTEGYLAVAVVKKANEGLTWNSLKDKKSCHTAVDRTAGWNIPMGLIVNQTGSCAFDEFFSQSCAPGADPKSRLCALCAGDDQGLDKCVPNSKEKYYGYTGAFRCLAEDVGDVAFVKNDTVWENTNGESTADWAKNLNREDFRLLCLDGTRKPVTEAQSCHLAVAPNHAVVSRSDRAAHVKQVLLHQQALFGKNGKNCPDKFCLFKSETKNLLFNDNTECLAKLGGRPTYEEYLGTEYVTAIANLKKCSTSPLLEACAFLTR
As to B1, the activity on viral hemagglutination (HI) stood at 46.5 fM in assay [1] and 2.9 pM in assay [2].

B2: bLf C-lobe (aa 345-689) (protein)
chain: VVWCAVGPEEQKKCQQWSQQSGQNVTCATASTTDDCIVLVLKGEADALNLDGGYIYTAGKCGLVPVLAENRKSSKHSSLDCVLRPTEGYLAVAVVKKANEGLTWNSLKDKKSCHTAVDRTAGWNIPMGLIVNQTGSCAFDEFFSQSCAPGADPKSRLCALCAGDDQGLDKCVPNSKEKYYGYTGAFRCLAEDVGDVAFVKNDTVWENTNGESTADWAKNLNREDFRLLCLDGTRKPVTEAQSCHLAVAPNHAVVSRSDRAAHVKQVLLHQQALFGKNGKNCPDKFCLFKSETKNLLFNDNTECLAKLGGRPTYEEYLGTEYVTAIANLKKCSTSPLLEACAFLTR
Regarding B2, the activity on viral hemagglutination (HI) amounted to 46.5 fM in assay [1] and 2.4 pM in assay [2].
